Key:
[1] = target: T1, VapB-1 (Haemophilus influenzae (nontypeable, R2866)) (UniProt E4QWH3); experiment: DNase I footprinting; conditions: EMSA: 20 mM HEPES pH 7.5, 100 mM NaCl, 0.1 mM EDTA, 1 mM DTT, 50 ug/mL BSA, 5% glycerol, 1 nM DNA, 25 C (gel 4 C); DNase I: 25 mM Tris-HCl pH 7.4, 70 mM KCl …
T1 sequence: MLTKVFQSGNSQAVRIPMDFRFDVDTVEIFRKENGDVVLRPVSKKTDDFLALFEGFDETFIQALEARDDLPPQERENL

VapB-1 [2] = target: T2, VapB-1 (Haemophilus influenzae (nontypeable, …, UniProt E4QWH3 1-78)); experiment: EMSA; up to 300:1; EMSA: 20 mM HEPES pH 7.5, 100 mM NaCl, 0.1 mM EDTA, 1 mM DTT, 50 ug/mL BSA, 5% glycerol, 1 nM DNA, 25 C (gel 4 C); DNase I: 25 mM Tris-HCl pH 7.4, 70 mM KCl, 7; conditions: protein: recombinant; tags: C-terminal polyhistidine (pET24b); chain copies: 2; label: 5'-32P sense strand; blunt
T2 sequence: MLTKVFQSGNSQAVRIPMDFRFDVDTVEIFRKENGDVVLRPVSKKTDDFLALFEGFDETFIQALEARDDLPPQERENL

VapB-1 [3] = target: T2, VapB-1; experiment: EMSA; 300:1; EMSA: 20 mM HEPES pH 7.5, 100 mM NaCl, 0.1 mM EDTA, 1 mM DTT, 50 ug/mL BSA, 5% glycerol, 1 nM DNA, 25 C (gel 4 C); DNase I: 25 mM Tris-HCl pH 7.4, 70 mM KCl, 7; conditions: protein: recombinant; tags: C-terminal polyhistidine (pET24b); chain copies: 2; blunt

“GTTAGGATCCTGAAACACTTTAGTAAGCATATTTACCCTCTCGTATATACTATGTATTTAATAAGTATATACTAATCATTTCAATTGCTGTATGCAAGTAAGAAGATCAAATTACCGTTGTTTTATTTAACCGCAATCATCGAGCGAATTCTAA (double strand) [153 bp vapBC-1 locus control region]” was tested, and the binding [1] was “no binding”.

B1: 50TIR (dsDNA)
DNA 1: AATGATTAGTATATACTTATTAAATACATAGTATATACGAGAGGGTAAAT
DNA 2: ATTTACCCTCTCGTATATACTATGTATTTAATAAGTATATACTAATCATT
B1: no binding (VapB-1 [2]).

B2: 50US (dsDNA)
DNA 1: AACAACGGTAATTTGATCTTCTTACTTGCATACAGCAATTGAAATGATTA
DNA 2: TAATCATTTCAATTGCTGTATGCAAGTAAGAAGATCAAATTACCGTTGTT
B2: no binding (VapB-1 [3]).
